Test results reported in patent US20210206849A1 (UNIVERSITY OF CONNECTICUT, published 2021).
Blank lines part the entries; values can stand above or below the binder they belong to.

Assays:
[1] = target: T1, mouse CTLA-4 on transfected HEK-293 cells (mouse, UniProt P09793 36-223); experiment: flow cytometry, biotinylated mBTN5-Ig and streptavidin-PE on transfected HEK-293 cells
T1 construct: whole, on cells
Procedure: (§1) FIG. 20. The expression pattern of the mBTN5 putative receptor. (A) Splenocytes from C57BL/6 mice were freshly harvested and analyzed for resting immune cells. For T cell activation, splenocytes were incubated with anti-CD3 (1 μg/ml) and anti-CD28 (0.5 μg/ml) antibodies for 3 days. For the activation of B cells, DCs and monocytes, splenocytes were incubated with LPS (10 μg/ml) for 3 days. The resting and active immune cells were stained with anti-CD4, CD8, B220, CD11c, or CD11b antibodies, and biotinylated mBTN5-Ig or control Ig, followed by streptavidin-PE. Representative flow cytometric profiles showing the binding of mBTN5-Ig or control Ig to resting and activated immune cells. (B, C) HEK-293 cells were transfected with an expression vector containing murine PD-1, CD28, BTLA, CTLA-4, or ICOS gene. The transfected cells were stained with (B) antibodies against the respective PD-1, CD28, BTLA, CTLA-4, or ICOS protein, (C) biotinylated mBTN5-Ig or control Ig, followed by streptavidin-PE. Representative flow cytometric profiles showing the binding of (B) the antibodies or (C) mBTN5-Ig to the transfected cells. Representative of 3 independent experiments.

[2] = target: T2, mouse ICOS on transfected HEK-293 cells (mouse, UniProt Q9WVS0 21-200); experiment: as above
T2 construct: whole, on cells
T2 sequence (looked up): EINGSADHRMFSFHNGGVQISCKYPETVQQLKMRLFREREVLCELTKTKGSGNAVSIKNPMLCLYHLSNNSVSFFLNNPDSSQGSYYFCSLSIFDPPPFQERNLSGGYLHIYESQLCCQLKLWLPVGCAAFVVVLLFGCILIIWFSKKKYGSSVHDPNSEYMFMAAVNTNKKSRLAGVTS
Procedure: as §1

[3] = target: T3, mouse BTLA on transfected HEK-293 cells (mouse, UniProt Q7TSA3 30-306); experiment: as above
T3 construct: whole, on cells
T3 sequence (looked up): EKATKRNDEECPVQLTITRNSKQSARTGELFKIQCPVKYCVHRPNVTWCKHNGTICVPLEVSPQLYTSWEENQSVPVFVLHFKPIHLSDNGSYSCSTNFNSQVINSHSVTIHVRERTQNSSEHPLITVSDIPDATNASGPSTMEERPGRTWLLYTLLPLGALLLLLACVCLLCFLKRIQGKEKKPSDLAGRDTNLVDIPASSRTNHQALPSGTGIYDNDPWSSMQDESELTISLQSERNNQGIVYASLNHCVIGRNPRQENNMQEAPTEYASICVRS
Procedure: as §1

[4] = target: T4, mouse PD-1 on transfected HEK-293 cells (mouse, UniProt Q02242 25-288); experiment: as above
T4 construct: whole, on cells
T4 sequence (looked up): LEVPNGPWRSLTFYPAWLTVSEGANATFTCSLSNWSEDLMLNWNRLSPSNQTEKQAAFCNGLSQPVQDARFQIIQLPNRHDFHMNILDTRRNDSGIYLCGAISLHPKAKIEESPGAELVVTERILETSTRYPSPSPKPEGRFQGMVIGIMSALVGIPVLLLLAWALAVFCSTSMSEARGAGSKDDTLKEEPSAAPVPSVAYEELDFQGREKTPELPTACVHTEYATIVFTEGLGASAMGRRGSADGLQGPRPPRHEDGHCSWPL
Procedure: as §1

[5] = target: T5, mouse CD28 on transfected HEK-293 cells (mouse, UniProt P31041 20-218); experiment: as above
T5 construct: whole, on cells
T5 sequence (looked up): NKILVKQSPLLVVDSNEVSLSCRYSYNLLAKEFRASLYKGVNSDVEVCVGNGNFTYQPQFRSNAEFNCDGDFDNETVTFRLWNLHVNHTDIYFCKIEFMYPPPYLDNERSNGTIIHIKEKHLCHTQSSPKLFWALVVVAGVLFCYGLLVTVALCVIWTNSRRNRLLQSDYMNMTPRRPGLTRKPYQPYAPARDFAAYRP
Procedure: as §1

[6] = target: T1, mouse CTLA-4 on transfected HEK-293 …; experiment: flow cytometry, biotinylated Skint8-Ig and streptavidin-PE on transfected HEK-293 cells
Procedure: (§2) FIG. 15. The expression pattern of the Skint8 putative receptor. (A, B) Spleen cells were harvested from C57BL/6 mice. To obtain activated T cells, the spleen cells were incubated with anti-CD3 (1 μg/ml) and anti-CD28 (0.5 μg/ml) antibodies for 3 days. To obtain activated B cells, monocytes and DCs, the spleen cells were incubated with LPS (10 μg/ml) for 3 days. The freshly harvested and activated immune cells were stained with biotinylated Skint8-Ig or control Ig, followed by streptavidin-PE, as well as anti-CD4, CD8, B220, CD11b, or CD11c antibodies to identify the immune cells. (A) Representative flow cytometric profiles and (B) Statistical analysis showing the binding of Skint8-Ig or control Ig to freshly harvested and activated immune cells. (B) Data are presented as relative fluorescence intensity (RFI) for cell binding of Skint8-Ig versus control Ig. (C) HEK-293 cells were transfected with an expression vector containing the murine PD-, CD28, BTLA, CTLA-4, or ICOS gene and screened for cells stably expressing each gene. The transfected cells were stained with antibody against the respective PD-1, CD28, BTLA, CTLA-4, or ICOS protein (open histograms) or isotype antibody (shaded histograms). Representative flow cytometric profiles showing the expression of each receptor. (D) PD-, CD28, BTLA, CTLA-4, or ICOS gene-transfected HEK-293 cells were stained with biotinylated Skint8-Ig or control Ig, followed by streptavidin-PE. Representative flow cytometric profiles showing the binding of Skint8-Ig (open histograms) or control Ig protein (shaded histograms) to the transfected cells. The data are representative of 3 independent experiments.
(§3) Single cell suspensions of organs were stained with the fluorochrome-conjugated antibodies protein as described (38-41). Direct or indirect staining of fluorochrome-conjugated antibodies included: CD4, CD8, B220, CD11c, CD11b, F4/80, CD69, CD44, CD62L, IFNγ, TNFα, IL-2, IL-10, CD28, CTLA-4, PD-1, BTLA, and ICOS (BioLegend, or BD Biosciences, San Jose, Calif., San Diego, Calif.). Skint8-g, Skint8 IgV-Ig or Skint8 IgC-Ig proteins were biotinylated with sulfo-NHS-LC-Biotin (Pierce) and detected by streptavidin-PE. The samples were analyzed on a FACSCalibur or LSRFortessa X-20 Cell Analyzer (BD Biosciences). Data analysis was done using FlowJo software (Ashland, Oreg.).

[7] = target: T2, mouse ICOS on transfected HEK-293 cells; experiment: as above
Procedure: as §2, §3

[8] = target: T3, mouse BTLA on transfected HEK-293 cells; experiment: as above
Procedure: as §2, §3

[9] = target: T4, mouse PD-1 on transfected HEK-293 cells; experiment: as above
Procedure: as §2, §3

[10] = target: T5, mouse CD28 on transfected HEK-293 cells; experiment: as above
Procedure: as §2, §3

[11] = target: T1, mouse CTLA-4 on transfected HEK-293 …; experiment: flow cytometry, biotinylated mCD300c2-Ig on transfected HEK-293 cells
Procedure: (§4) To determine whether mCD300c binds to molecules previously identified as receptors of the known B7 family members, HEK-293 cells were transfected with an expression vector containing the mouse CD28. CTLA4, PD-1, BTLA or ICOS gene. The expression of these receptors on the transfected 293 cells was confirmed by flow cytometric analysis with the antibodies against the respective receptors (FIG. 5C). The binding of mCD300c to the transfected HEK-293 cells was then analyzed.

[12] = target: T2, mouse ICOS on transfected HEK-293 cells; experiment: as above
Procedure: as §4

[13] = target: T3, mouse BTLA on transfected HEK-293 cells; experiment: as above
Procedure: as §4

[14] = target: T4, mouse PD-1 on transfected HEK-293 cells; experiment: as above
Procedure: as §4

[15] = target: T5, mouse CD28 on transfected HEK-293 cells; experiment: as above
Procedure: as §4

[16] = target: T6, Control Ig (recombinant mouse IgG2a Fc protein) (mouse, UniProt P01863 98-330 = IgG part, limits assumed); experiment: ELISA screen of hybridomas
T6 construct: domain: Fc; Bought control protein; also called control mouse IgG2a Fc; control Ig protein

[17] = target: T7, Human CD300c-Ig fusion protein (human); experiment: ELISA screen of hybridomas
T7 construct: also called hCD300c-Ig; hCD300-Ig
T7 chain: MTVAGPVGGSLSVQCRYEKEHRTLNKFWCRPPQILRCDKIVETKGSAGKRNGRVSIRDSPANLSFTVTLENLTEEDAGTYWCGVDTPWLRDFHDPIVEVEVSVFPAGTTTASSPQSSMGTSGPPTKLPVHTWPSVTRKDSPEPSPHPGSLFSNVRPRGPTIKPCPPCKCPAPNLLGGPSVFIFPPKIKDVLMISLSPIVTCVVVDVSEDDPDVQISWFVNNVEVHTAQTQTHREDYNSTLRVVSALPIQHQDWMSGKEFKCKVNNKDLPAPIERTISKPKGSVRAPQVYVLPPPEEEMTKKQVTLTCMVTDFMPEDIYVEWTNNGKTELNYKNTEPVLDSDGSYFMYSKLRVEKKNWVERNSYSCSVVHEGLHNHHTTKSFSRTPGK

- binding result [1]: no binding
- binding result [2]: no binding
- binding result [3]: no binding
- binding result [4]: no binding
- binding result [5]: no binding
B1: mBTN5-Ig fusion protein (Fc fusion)
chain: QPPVQVLGDAGKVYIAPLRDTANLPCPLFLWPNMVLSEMRWYRPGHLPRTQAVHVFRDGQDRDEDLMPEYKGRTALVRDAHKESYILQISNVRLEDRGLYQCQVWVGNS
modifications: biotinylated with sulfo-NHS-LC-Biotin (sites not given)
notes: Made in HEK-293 cells; not shown: constant region of mouse IgG2a from the pCMV6-AC-FC-S expression vector (ORIGENE)

- binding result [6]: no binding
- binding result [7]: no binding
- binding result [8]: no binding
- binding result [9]: no binding
- binding result [10]: no binding
B2: Mouse Skint8-Ig fusion protein (Fc fusion)
chain: EKLRVTTPTRHLLARVGGQAELSCQVIPPHSVMHMEVRWFRSGHSQPVYLYRGGHKMSEEAAPEYANRTEFVKEAIGEGKVSLRIYNINILDDGPYQCSFNDSGFIDVAIMNLNVTAVGLETEIHVQAPDADGVMVECNTGGWFPRPQMEWRDSKGATLPHSLKSYSQDEARFFHMKMTLLLTNMSHGSIICCISNPVTGEEKQTSIIPRGPTIKPCPPCKCPAPNLLGGPSVFIFPPKIKDVLMISLSPIVTCVVVDVSEDDPDVQISWFVNNVEVHTAQTQTHREDYNSTLRVVSALPIQHQDWMSGKEFKCKVNNKDLPAPIERTISKPKGSVRAPQVYVLPPPEEEMTKKQVTLTCMVTDFMPEDIYVEWTNNGKTELNYKNTEPVLDSDGSYFMYSKLRVEKKNWVERNSYSCSVVHEGLHNHHTTKSFSRTPGK
modifications: biotinylated with sulfo-NHS-LC-Biotin in the flow cytometry assays (sites not given)
notes: Made in HEK-293 cells; also called Skint8-IgG Fc

- binding result [11]: no binding
- binding result [12]: no binding
- binding result [13]: no binding
- binding result [14]: no binding
- binding result [15]: no binding
B3: mCD300c2-Ig fusion protein (Fc fusion)
chain: CVPLHGPSTITGTVGKSLSVSCQYEEKFKTKDKFWCRGSLKVLCKDIVKTSSSEEVRNGRVTIRDHPDNLTFTVTYESLTLEDADTYMCAVDISLFDGSLGFDKYFKIELSVVPSEDPVTGSSLESGRDILESPTSSVGHTHPSVTTDDTIPTPCPQPRSLRSSLYFRVLVS
modifications: biotinylated with sulfo-NHS-LC-Biotin for flow cytometry (sites not given)
notes: Made in HEK293F cells; also called mCD300c-Ig; not shown: constant region of mouse IgG2a from the pCMV6-AC-FC-S expression vector (ORIGENE)

- binding result [16]: no binding
B4: anti-hTAPBPL mAb (clone 54) (antibody, V domains shown)
VH: DVQLQESGPGLVKPSQTLSLTCSVTGYSLTSGYFWHWIRQFPGNKLEWMGYISYSGTTNYNPSLKNRISITHDSSKNQFFLNLNSVTAEDTATYFCAGDDWDWFAYWGQGTLVTVSA
VL: ENVLTQSPAIMSASPGEKVTMTCSASSSVNYMHWYQQKSSTSPKLWIYDTSKLASGVPGRFSGSGSGNSYSLTISSMEAEDVATYYCFQGSGYPLTFGSGTKLEIK
notes: Mouse hybridoma mAb; also called anti-TAPBPL mAb

- binding result [16]: no binding
- binding result [17]: binds
B5: anti-hCD300c mAb (clone B47-1D2) (antibody, V domains shown)
VH: QIQLVQSGPELRKPGETVKISCKASGYTFTIYGMNWMKQAPGKGLKWMGWINTYTGEPTYADDFKGRFAFSLETSASTAFLQINNLTNEDTATYFCARSRFAYWGQGTLVTVSA
VL: DIVMTQSQKFMSTSVGDRVSVTCKASQNVGTNVAWYQQKPGQSPKALIYSASYRYSGVPDRFTGSRSGTDFTLTISNVQSEDLAEYVCQQYNSYPLTFGAGTKLELK
notes: Mouse hybridoma mAb; also called anti-CD300c mAb
